The values that follow come from JP2009045066A (dated 2009).

For this experiment, the target named is T1, 天然のヒトCD4(細胞表面) (human, UniProt P01730 26-458).
T1 construct: whole, on cells; also called nCD4; CD4 on SupT1 cells
Description: flow cytometry on SupT1 cells, serial dilutions, half-maximal fluorescence.

B1: 4D1 (antibody, V domains shown)
VH: EVQLVQSGAEVKKPGESLKISCKGSGYSFTGYWIGWVRQMPGKGLEWMGIIYPGDSDTTYSPSFQGQVTISADKSISTAYLQWSSLKASDTAMYYCARDQLGLFDYWGQGTLVTVSS
VL: DIQMTQSPSSLSASVGDRVTITCRASQGISSWLAWYQQKPEKAPKSLIYSASSLQSGVPSRFSGSGSGTDFTLTISSLQPEDFATYYCQQYDSYPYTFGQGTKLEIK
As to B1, the Ka was more than 1e+09 M⁻¹.
